Paper PMC13423800, “De novo design of potent CRISPR–Cas13 inhibitors” (Nature Chemical Biology, 2024)

T1: Leptotrichia buccalis (Lbu) CRISPR–Cas13a (Leptotrichia buccalis, UniProt C7NBY4 1-1159)
T1 sequence: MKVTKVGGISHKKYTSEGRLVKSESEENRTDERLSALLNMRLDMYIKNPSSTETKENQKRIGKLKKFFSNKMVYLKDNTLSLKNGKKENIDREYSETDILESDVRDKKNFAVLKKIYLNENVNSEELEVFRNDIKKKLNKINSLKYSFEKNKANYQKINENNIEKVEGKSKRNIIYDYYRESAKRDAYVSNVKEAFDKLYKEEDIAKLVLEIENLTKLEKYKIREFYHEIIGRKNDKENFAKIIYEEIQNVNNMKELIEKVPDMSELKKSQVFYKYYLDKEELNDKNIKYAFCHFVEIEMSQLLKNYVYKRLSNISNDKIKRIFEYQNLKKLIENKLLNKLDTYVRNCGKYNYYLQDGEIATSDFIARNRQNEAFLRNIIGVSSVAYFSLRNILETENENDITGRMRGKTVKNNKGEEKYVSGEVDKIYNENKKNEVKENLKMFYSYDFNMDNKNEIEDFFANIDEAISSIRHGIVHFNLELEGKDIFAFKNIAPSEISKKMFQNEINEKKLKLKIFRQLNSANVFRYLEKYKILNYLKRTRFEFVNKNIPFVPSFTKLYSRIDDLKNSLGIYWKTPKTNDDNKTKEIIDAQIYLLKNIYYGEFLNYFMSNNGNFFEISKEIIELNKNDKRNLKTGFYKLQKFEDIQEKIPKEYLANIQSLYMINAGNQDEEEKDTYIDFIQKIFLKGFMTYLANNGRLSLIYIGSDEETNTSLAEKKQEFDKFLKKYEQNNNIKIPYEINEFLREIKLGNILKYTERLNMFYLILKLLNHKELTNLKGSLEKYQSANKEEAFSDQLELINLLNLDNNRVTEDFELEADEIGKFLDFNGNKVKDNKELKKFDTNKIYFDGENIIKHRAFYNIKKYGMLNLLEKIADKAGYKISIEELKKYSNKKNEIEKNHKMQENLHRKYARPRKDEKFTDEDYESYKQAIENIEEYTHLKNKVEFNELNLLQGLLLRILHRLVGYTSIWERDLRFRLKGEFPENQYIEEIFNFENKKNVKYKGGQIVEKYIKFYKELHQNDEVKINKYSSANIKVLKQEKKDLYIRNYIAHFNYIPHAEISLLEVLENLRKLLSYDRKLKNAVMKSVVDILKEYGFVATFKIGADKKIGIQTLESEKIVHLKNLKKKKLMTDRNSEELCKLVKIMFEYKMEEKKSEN

T2: LbuCas13a (Leptotrichia buccalis, UniProt C7NBY4)
T2 sequence: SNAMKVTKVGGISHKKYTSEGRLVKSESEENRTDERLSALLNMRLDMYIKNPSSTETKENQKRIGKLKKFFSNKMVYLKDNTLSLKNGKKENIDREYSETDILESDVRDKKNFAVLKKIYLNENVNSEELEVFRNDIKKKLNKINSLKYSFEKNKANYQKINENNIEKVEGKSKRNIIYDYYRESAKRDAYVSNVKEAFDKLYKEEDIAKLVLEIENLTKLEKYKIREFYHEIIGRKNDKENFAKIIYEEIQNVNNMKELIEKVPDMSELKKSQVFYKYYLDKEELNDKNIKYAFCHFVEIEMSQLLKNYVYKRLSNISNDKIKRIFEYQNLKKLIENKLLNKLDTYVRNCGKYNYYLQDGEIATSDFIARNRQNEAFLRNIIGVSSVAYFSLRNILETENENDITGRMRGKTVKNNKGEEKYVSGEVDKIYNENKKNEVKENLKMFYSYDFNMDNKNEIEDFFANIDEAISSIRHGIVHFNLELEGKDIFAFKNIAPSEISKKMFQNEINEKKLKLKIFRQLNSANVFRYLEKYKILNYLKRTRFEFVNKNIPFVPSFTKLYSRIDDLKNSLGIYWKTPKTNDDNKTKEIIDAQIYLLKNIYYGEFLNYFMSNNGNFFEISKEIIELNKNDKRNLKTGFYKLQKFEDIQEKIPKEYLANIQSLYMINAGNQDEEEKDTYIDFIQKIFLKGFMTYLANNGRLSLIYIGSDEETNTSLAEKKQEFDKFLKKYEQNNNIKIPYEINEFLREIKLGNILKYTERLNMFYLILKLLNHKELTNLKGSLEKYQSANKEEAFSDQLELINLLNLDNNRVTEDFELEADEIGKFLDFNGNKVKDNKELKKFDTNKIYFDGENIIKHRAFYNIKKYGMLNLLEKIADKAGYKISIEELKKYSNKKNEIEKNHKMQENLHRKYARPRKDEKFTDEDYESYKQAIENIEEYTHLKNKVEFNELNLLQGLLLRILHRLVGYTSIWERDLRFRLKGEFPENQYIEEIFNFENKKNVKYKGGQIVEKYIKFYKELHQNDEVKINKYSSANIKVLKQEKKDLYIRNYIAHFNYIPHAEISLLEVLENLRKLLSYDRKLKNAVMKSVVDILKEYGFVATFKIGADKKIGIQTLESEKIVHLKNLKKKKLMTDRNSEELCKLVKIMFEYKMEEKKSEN


Key:
[1] = molecular target: T1, Leptotrichia buccalis (Lbu) …; assay: cell-based or functional assay
LbuCas13a = molecular target: T2, LbuCas13a; assay: fluorescence polarization; no AIcr (control); 40 nM aRNA, RNP titrated; FP: 1x Cas13a cleavage buffer (composition not in the material), RNP twofold dilutions, 40 nM FAM-aRNA, 2 uM AIcrVIA, 2 h at 37 C; settings: protein: recombinant; tags: 6xHis-MBP, removed with TEV (SNA left at the N-terminus); label: 5'-6-FAM on aRNA; guide:target 24 bp; guide 5' repeat single-stranded/hairpin; target overhangs 5' C and 3' CC

IC50 of inhibition of the LbuCas13a HEPN nuclease (velocity of reporter RNA cleavage by LbuCas13a–crRNA–aRNA against AIcrVIA concentration) [1] | Binder | binding result (LbuCas13a)
~7 nM | AIcrVIA3 (designed binder) MAPKKYVVTVTIPVTDADLTVFLVVDIIVYAEKLGGTVTITAVKSENDSYSVTLEDLDKAAEELEKVGGSIVLTVTFDNKEKAEKVAEFAYLKAEEYNLKVDVEVKEEL | –
~7 nM | AIcrVIA2 (designed binder) MNEKKEKARKEMKEIAEKAIKEIKKDPEKALEIAVKAVEEIGEIANESGDYKSGEENAWKVAEEYAKVTGDDDTAYDLMLAGDMIIDGKDAEEGYEILKEL | –
– | FP crRNA / 5'-FAM aRNA (mixed, first C of the aRNA is deoxyribose (C*)) RNA: UAGACCACCCCAAAAAUGAAGGGGACUAAAACUUUCUUUCUUUCCUUUUUCUGCCG ?: CCGGCAGAAAAAGGAAAGAAAGAAACC | binds
